Here are results for one protein from PMC5347741.

A short description of the data set: immunohistochemistry, nude mouse xenograft. Conditions: glycan changed form; control: untransfected CAOV3 cells.

B1: CD147: FUT1 transfection (CA-FUT1) (protein)
parent chain: MAAALFVLLGFALLGTHGASGAAGTVFTTVEDLGSKILLTCSLNDSATEVTGHRWLKGGVVLKEDALPGQKTEFKVDSDDQWGEYSCVFLPEPMGTANIQLHGPPRVKAVKSSEHINEGETAMLVCKSESVPPVTDWAWYKITDSEDKALMNGSESRFFVSSSQGRSELHIENLNMEADPGQYRCNGTSSKGSDQAIITLRVRSHLAALWPFLGIVAEVLVLVTIIFIYEKRRKPEDVLDDDDAGSAPLKSSGQHQNDKGKNVRQRNSS
As for B1, the expression_or_secretion result is given as “increases”.
